Data: patent US7026283

Columns and labels:
[1] = biological target: rat FcεRI (high affinity IgE receptor) on RBL-2H3 cells (rat) (UniProt P12371); test: FACS on RBL-2H3 cells; FITC-conjugated IgE after preincubation with saturating unconjugated 3A9 (competitor); conditions: scale: mCi
[2] = biological target: rat FcεRI (high affinity IgE receptor) on RBL-2H3 cells (rat) (UniProt P12371); test: FACS on RBL-2H3 cells; FITC-conjugated IgE after preincubation with saturating unconjugated 4H7 (competitor); design: unit not given here
[3] = biological target: rat FcεRI (high affinity IgE receptor) on RBL-2H3 cells (rat) (UniProt P12371); test: FACS on RBL-2H3 cells; FITC-conjugated IgE at a subsaturating concentration, no preincubation; conditions: scale: mCi
[4] = biological target: rat FcεRI (high affinity IgE receptor) on RBL-2H3 cells (rat) (UniProt P12371); test: FACS on RBL-2H3 cells; FITC-conjugated IgE after preincubation with saturating unconjugated AA4 (anti-ganglioside Gd1b, competitor); conditions: scale: mCi
[5] = biological target: rat FcεRI (high affinity IgE receptor) on RBL-2H3 cells (rat) (UniProt P12371); test: FACS on RBL-2H3 cells; FITC-conjugated IgE after preincubation with saturating unconjugated 5.14 (competitor); conditions: scale: mCi
[6] = biological target: rat FcεRI (high affinity IgE receptor) on RBL-2H3 cells (rat) (UniProt P12371); test: FACS on RBL-2H3 cells; FITC-conjugated IgE after preincubation with saturating unconjugated BC4 (competitor); conditions: scale: mCi
[7] = biological target: rat FcεRI (high affinity IgE receptor) on RBL-2H3 cells (rat) (UniProt P12371); test: FACS on RBL-2H3 cells; FITC-conjugated IgE after preincubation with saturating unconjugated 1A12 (competitor); conditions: scale: mCi

- Median Fluorescence Intensity [1]: 6.5
- Median Fluorescence Intensity [2]: 6.4
- Median Fluorescence Intensity [3]: 75
- Median Fluorescence Intensity [4]: 12.3
- Median Fluorescence Intensity [5]: 5.5
- Median Fluorescence Intensity [6]: 5.8
- Median Fluorescence Intensity [7]: 61
Substance: IgE (antibody)
